Like-named read-outs stand apart in the source and are kept apart here.
Biological target: T1, hAng2-RBD (Homo sapiens, UniProt O15123)
T1 construct: made in house; host or cells: HEK293F
T1 sequence (O15123 276-496): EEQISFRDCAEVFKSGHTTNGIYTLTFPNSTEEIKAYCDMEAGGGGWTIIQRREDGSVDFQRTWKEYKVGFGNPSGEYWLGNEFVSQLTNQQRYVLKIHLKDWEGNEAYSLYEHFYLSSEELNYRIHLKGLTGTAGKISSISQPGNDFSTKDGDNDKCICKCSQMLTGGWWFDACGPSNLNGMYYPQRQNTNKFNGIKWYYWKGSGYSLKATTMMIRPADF
Type: binding
Conditions: for Relative Uptake (Da) Δ: 2C8
Description: The antigenic determinants (epitopes) of hAng2 recognized by mouse monoclonal antibodies, 2C8 and 4B9, were analyzed by HDX-MS (Hydrogen/deuterium exchange-mass spectrometry) technique. HDX-MS analysis methods are described in the following articles; Houde D, Engen J R (2013) Methods Mol. Biol. 988: 269-89 and Houde et al. (2011) J. Pharm. Sci. 100 (6), 2071.
Recombinant hAng2-RBD protein was used to analyze the epitopes of antibodies 2C8 and 4B9. […] The prepared hAng2-RBD/antibody complexes were diluted 15 times with deuterium labeling buffer, labeled at various time, and then quenched with the same volume of quenching buffer. The labeling reaction time was 0 min (undeuterium), 0.33 min, 10 min, 60 min and 240 min. However, in undeuterium condition, the deuterium labeling buffer was replaced with equilibrium buffer and the reaction was immediately stopped with quenching buffer. For mass spectrometry, the deuterium labeled hAng2-RBD/antibody samples were loaded on a pepsin column and peptide digestion was proceeded.
The deuterium uptake difference between hAng2-RBD alone and the hAng2-RBD-antibody complex conditions was comparatively analyzed, and a region showing a distinct decrease in the deuterium uptake is either a peptide to which the antibody binds directly, or a structurally changed region. When the deuterium uptake difference between hAng2-RBD alone and the hAng2-RBD-antibody complex was 0.5-1 Da or more, it was considered significant.
In the case of antibody 4B9, it cannot be ruled out that an undetermined region (residues 25 to 40 of SEQ ID NO: 2) can be included in the scope of the epitope. The epitope analysis results for each antibody are shown in different colors on the 3D structure of hAng2-RBD, which was generated using PyMol software (FIG. 2).

B1: 2C8: mouse monoclonal anti-Ang2 antibody; VH SEQ ID NO: 19, VL SEQ ID NO: 21; hybridoma KCLRF-BP-00417 (antibody, V domains shown)
VH: QVQLQQSGPQLVRPGASVKISCKASGYSFTSYWMHWVKQRPGQGLEWIGMIDPSDSETRLNQKFKDKASLTVDKSSSTAYMQLSSPTSGDSAVYYCARRFYYGSDWYFDVWGAGSTVTVSS
VL: DIVMTQSHKFMSTSVGDRVSITCKASQDVGTAVAWYQQKPGQSPKLLIYWASTRHTGVPDRFTGSGSGTDFTLTISNVQSEDLADYFCQQYSSYPLTFGSGTKLEIK
modifications: Heavy Chain Variable Region; Light Chain Variable Region
notes: mouse monoclonal anti-Ang2 antibody; hybridoma KCLRF-BP-00417
Relative Uptake (Da) Δ (residues 52-60 (SEQ ID NO: 2), exposure time 0.00 min): 0.15 Da
Relative Uptake (Da) Δ (residues 52-60 (SEQ ID NO: 2), exposure time 0.33 min): 0.21 Da
Relative Uptake (Da) Δ (residues 52-60 (SEQ ID NO: 2), exposure time 10.00 min): 0.41 Da
Relative Uptake (Da) Δ (residues 52-60 (SEQ ID NO: 2), exposure time 60.00 min): 0.14 Da
Relative Uptake (Da) Δ (residues 52-60 (SEQ ID NO: 2), exposure time 240.00 min): 0.08 Da
Relative Uptake (Da) Δ (residues 61-77 (SEQ ID NO: 2), exposure time 0.00 min): 0.08 Da
Relative Uptake (Da) Δ (residues 61-77 (SEQ ID NO: 2), exposure time 0.33 min): 1.18 Da
Relative Uptake (Da) Δ (residues 61-77 (SEQ ID NO: 2), exposure time 10.00 min): 1.78 Da
Relative Uptake (Da) Δ (residues 61-77 (SEQ ID NO: 2), exposure time 60.00 min): 1.36 Da
Relative Uptake (Da) Δ (residues 61-77 (SEQ ID NO: 2), exposure time 240.00 min): 1.31 Da
Relative Uptake (Da) Δ (residues 61-78 (SEQ ID NO: 2), exposure time 0.00 min): 0.06 Da
Relative Uptake (Da) Δ (residues 61-78 (SEQ ID NO: 2), exposure time 0.33 min): 1.15 Da
Relative Uptake (Da) Δ (residues 61-78 (SEQ ID NO: 2), exposure time 10.00 min): 1.80 Da
Relative Uptake (Da) Δ (residues 61-78 (SEQ ID NO: 2), exposure time 60.00 min): 1.33 Da
Relative Uptake (Da) Δ (residues 61-78 (SEQ ID NO: 2), exposure time 240.00 min): 1.34 Da
Relative Uptake (Da) Δ (residues 67-77 (SEQ ID NO: 2), exposure time 0.00 min): −0.12 Da
Relative Uptake (Da) Δ (residues 67-77 (SEQ ID NO: 2), exposure time 0.33 min): 0.89 Da
Relative Uptake (Da) Δ (residues 67-77 (SEQ ID NO: 2), exposure time 10.00 min): 1.58 Da
Relative Uptake (Da) Δ (residues 67-77 (SEQ ID NO: 2), exposure time 60.00 min): 1.21 Da
Relative Uptake (Da) Δ (residues 67-77 (SEQ ID NO: 2), exposure time 240.00 min): 1.07 Da
Relative Uptake (Da) Δ (residues 67-78 (SEQ ID NO: 2), exposure time 0.00 min): 0.30 Da
Relative Uptake (Da) Δ (residues 67-78 (SEQ ID NO: 2), exposure time 0.33 min): 0.95 Da
Relative Uptake (Da) Δ (residues 67-78 (SEQ ID NO: 2), exposure time 10.00 min): 1.66 Da
Relative Uptake (Da) Δ (residues 67-78 (SEQ ID NO: 2), exposure time 60.00 min): 1.33 Da
Relative Uptake (Da) Δ (residues 67-78 (SEQ ID NO: 2), exposure time 240.00 min): 1.04 Da
Relative Uptake (Da) Δ (residues 78-84 (SEQ ID NO: 2), exposure time 0.00 min): 0.00 Da
Relative Uptake (Da) Δ (residues 78-84 (SEQ ID NO: 2), exposure time 0.33 min): −0.01 Da
Relative Uptake (Da) Δ (residues 78-84 (SEQ ID NO: 2), exposure time 10.00 min): 0.01 Da
Relative Uptake (Da) Δ (residues 78-84 (SEQ ID NO: 2), exposure time 60.00 min): 0.11 Da
Relative Uptake (Da) Δ (residues 78-84 (SEQ ID NO: 2), exposure time 240.00 min): 0.36 Da
epitope of hAng2-RBD to which the antibody binds (deuterium uptake difference 0.5-1 Da or more considered significant): residues 61 to 78 of SEQ ID NO: 2

— patent publication US12331106B2, “Anti-angiopoietin-2 antibodies that induce Tie2 activation” (Institute for Basic Science, priority 2018, dated 2025)
